One block for each binder: values may come before it.
B6: recombinant full length tetranectin (TN123) (other)
chain: GEPPTQKPKKIVNAKKDVVNTKMFEELKSRLDTLAQEVALLKEQQALQTVCLKGTKVHMKCFLAFTQTKTFHEASEDCISRGGTLSTPQTGSENDALYEYLRQSVGNEAEIWLGLNDMAAEGTWVDMTGARIAYKNWETEITAQPDGGKTENCAVLSGAANGKWFDKRCRDQLPYICQFGIV
notes: Found as a trimer in solution; also called rTN123

Key:
[1] = target: the molecule itself; assay: analytical gel filtration on Superose 12; self-association
Protocol: (§1) FIG. 9: Gel filtration analysis of TN123, TN23, and TN3 Analytical gel filtration of the recombinant tetranectin derivatives TN123, TN23, and TN3 were performed on a Superose 12 HR 10/30 column (Pharmacia, Sweden) with a total volume of 25 ml in 100 mM NaCl and 50 mM Tris-HCl pH 8 and a flow rate of 0.2 ml/min. Vertical bars at peak maxima identify elution profiles for each of the three proteins.
(§2) Analytical gelfiltration of the recombinant tetranectin derivatives TN123, TN3, and TN23 (FIG. 9) were performed on a Superose 12 HR 10/30 column (Pharmacia, Sweden) with a total volume of 25 ml in 100 mM NaCl and 50 mM Tris-HCl pH 8 and a flow rate of 0.2 ml/min. The Kₐᵥ value is defined by, Kₐᵥ=(Ve−Vo)/(Vc−Vo).

[2] = target: the molecule itself; assay: analytical gel filtration on Superose 12
Protocol: as §1, §2

[3] = target: B6; assay: DMSI cross-linking of the mixture with and without heat treatment at 70 C, SDS-PAGE
Protocol: (§3) The recombinant tetranectin derivatives TN123, TN3, and TN23, together with the fusion proteins CIIH6FXTN123 and H6FXTN12 or mixtures of these derivatives at 1 mg/ml concentrations in cross-linking buffer (0.1 M Sodium borate, pH 9.1) were incubated with dimethylsuberimidate (DMSI, Sigma). 10 μl aliquots of protein solution were incubated with 1 μl aliquots of DMSI stock solution (20 mg/ml in cross-linking buffer) for 30 minutes at 25° C. before addition of 2 μl quenching buffer (3 M Tris-HCl, pH 9). Subunit exchange between preformed homo-oligomers was induced by subjecting protein mixtures to heat shock treatment. Five μl aliquots of each protein solution (1 mg/ml stocks) were mixed at 0° C. in standard polypropylene microcentrifuge tubes, transferred to a water bath at 70° C. for the time spans indicated, and then further incubated for 15 minutes at 25° C. before reaction with DMSI.

[4] = target: the molecule itself; assay: DMSI cross-linking and SDS-PAGE; self-association
Protocol: as §3
Subunit exchange could be induced by incubating the protein mixture at 70° C. for 15 seconds or longer before cooling to room temperature and addition of DMSI. […] It should be noted, that molecular weight markers have only been included on the SDS-PAGE gels for crude calibration and orientation of the gels.

[5] = target: B6; assay: DMSI cross-linking and SDS-PAGE after heat treatment at 70 C
Protocol: as §3

[6] = target: B6; assay: DMSI cross-linking and SDS-PAGE after subunit exchange at 70 C for 15 s or longer; no exchange after 16 h at room temperature
Protocol: FIG. 10: Cross-linking analysis of TN123 and CIIH6FXTN123. Samples of TN123, CIIH6FXTN123 and mixtures of both were incubated with DMSI and analyzed by SDS-PAGE (12% gel). Before addition of DMSI, protein mixtures were subjected to subunit exchange by incubation at 70° C. for varying length of time. Protein marker of 94, 68, 43 and 30 kDa, top to bottom (lane M). CIIH6FXTN123 fusion protein (lane 1). TN123 (lane 2). DMSI treated CIIH6FXTN123 (lanes 3 and 6). DMSI-treated TN123 (lane 4). Identical samples of DMSI treated mixtures of CIIH6FXTN123 and TN123 without heat exposure (lanes 5 and 7) and heat treated for 2.5 sec, 15 sec, 2.5 min. and 10 min., respectively, before treatment with DMSI (lanes 8-11).
as §3, with “Five μl aliquots of each protein solution (1 mg/ml stocks) were mixed at 0° C. in standard polypropylene microcentrifuge tubes, transferred to a water bath at 70° C. for the time spans indicated, and then further incubated for 15 minutes at 25° C. before reaction with DMSI.” left out

[7] = target: the molecule itself; assay: DMSI cross-linking with rising DMSI at room temperature, SDS-PAGE; self-association
Protocol: After completion of the refolding procedure each column was washed with 300 ml buffer containing 0.5 M NaCl and 50 mM Tris-HCl pH 8 to wash away glutathione. The refolded fraction of each protein was then eluted from the NTA-agarose matrix by addition of 20 mM EDTA to the elution buffer. After addition of solid urea to achieve a final concentration of about 8 M to each protein sample and dilution or dialysis to reduce NaCl concentrations to below 5 mM, final purification of each correctly folded fusion protein product was then accomplished by ion exchange chromatography (S-Sepharose, Pharmacia, 1,6 (i.d.) by 90 centimeter column in a buffer containing 8 M urea, 5 mM Tris-HCl (from 1 M stock solution at pH 8) and 25 mM sodium acetate (from 1 M stock solution at pH 5), eluted at 2 ml/min). After dialysis against aqueous buffers (e.g. phosphate buffered saline) each pure and correctly refolded fusion protein was recovered in yields of 2-6 mg per litre of culture grown. […] Reactions were quenched by addition of 5 μl 3M Tris-HCl pH 9 and the samples analyzed by SDS-PAGE under reducing conditions (FIG. 21). Like tetranectin, the H6FXtripb-scFV-(CEA6) fusion protein, of approximately 38 kDa, is hereby shown to be a trimer in solution.

B1: recombinant tetranectin derivative TN23 (other)
chain: VVNTKMFEELKSRLDTLAQEVALLKEQQALQTVCLKGTKVHMKCFLAFTQTKTFHEASEDCISRGGTLSTPQTGSENDALYEYLRQSVGNEAEIWLGLNDMAAEGTWVDMTGARIAYKNWETEITAQPDGGKTENCAVLSGAANGKWFDKRCRDQLPYICQFGIV
notes: It is a trimer by gel filtration but appeared monomeric after DMSI cross-linking
- binding result [1]: binds

B3: fusion protein H6FXTN12 (other)
chain: MGSHHHHHHGSIEGRGEPPTQKPKKIVNAKKDVVNTKMFEELKSRLDTLAQEVALLKEQQALQTV
notes: Uncleaved fusion protein; Formed homo-trimers upon cross-linking; also called H6-rTN12
- binding result [4]: binds
- binding result [5]: binds

B5: fusion protein H6FXtripb-scFv(CEA6) (scFv)
chain: MGSHHHHHHGSIQGRSPGTEPPTQKPKKIVNAKKDVVNTKMFEELKSRLDTLAQEVALLKEQQALQTGSQVQLQQSGAEVKKPGSSVKVSCKASGGTFSNSPINWLRQAPGQGLEWMGSIIPSFGTANYAQKFQGRLTITADESTSTAYMELSSLRSEDTAVYYCAGRSHNYELYYYYMDVWGQGTMVTVSSGGGGSGGGGSGGGGSDIQMTQSPSTLSASIGDRVTITCRASEGIYHWLAWYQQKPGKAPKLLIYKASSLASGAPSRFSGSGSGTDFTLTISSLQPDDFATYYCQQYSNYPLTFGGGTKLEIKRAAAEQKLISEEDLNGA
notes: About 38 kDa per monomer; Only its self-association was tested
- binding result [7]: binds

Binder: B6
- binding result [1]: binds

Second part, led by results:

- binding result [3]: no binding
B2: recombinant tetranectin derivative TN3 (other)
chain: ALQTVCLKGTKVHMKCFLAFTQTKTFHEASEDCISRGGTLSTPQTGSENDALYEYLRQSVGNEAEIWLGLNDMAAEGTWVDMTGARIAYKNWETEITAQPDGGKTENCAVLSGAANGKWFDKRCRDQLPYICQFGIV
notes: Appeared monomeric
- binding result [2]: no binding

- binding result [6]: binds
B4: tetranectin fusion protein CIIH6FXTN123 (other)
chain: MVRANKRNEALRIESALLNKIAMLGTEKTAEGGSHHHHHHGSIEGRGEPPTQKPKKIVNAKKDVVNTKMFEELKSRLDTLAQEVALLKEQQALQTVCLKGTKVHMKCFLAFTQTKTFHEASEDCISRGGTLSTPQTGSENDALYEYLRQSVGNEAEIWLGLNDMAAEGTWVDMTGARIAYKNWETEITAQPDGGKTENCAVLSGAANGKWFDKRCRDQLPYICQFGIV
notes: Uncleaved fusion protein; Forms homo-trimers, and forms hetero-trimers with TN123; also called H6CIIFXTN123
- binding result [4]: binds

Reference: patent US20070154901A1 (ANAPHORE, published 2007)
